Experimental findings from PMC11499256, “Two-factor authentication underpins the precision of the piRNA pathway” (Nature, 2024) are described below.

Assay [1] has as its target T1, His-tagged SPIN1 (49–262) (mouse, UniProt Q61142 49-262).
T1 construct: mouse SPIN1 (Q61142), amino acids 49–262; 'Purified as above' would include cleavage of the tag, yet the protein is called His-tagged and detected by anti-His; source: E. coli BL21 (DE3), purified
Description: SEC; SPIN1–SPOCD1 fragment 1b complex purified on an S200 increase column before the nucleosome pull-down. Particulars: both partners purified. (In general: Size exclusion chromatography separates by hydrodynamic size, large species first.)

In assay [2] the target is T2, mouse SPIN1 (amino acids 49–262), recombinant, His tag cleaved (mouse, UniProt Q61142 49-262).
T2 construct: mouse SPIN1 (Q61142), amino acids 49–262; The SPIN1 construct was cleaved with GST–3C protease overnight; also called recombinant SPIN1; source: E. coli BL21 (DE3), purified (His-tag column, 3C cleavage, ion exchange, SEC)
T2 sequence (Q61142 49-262): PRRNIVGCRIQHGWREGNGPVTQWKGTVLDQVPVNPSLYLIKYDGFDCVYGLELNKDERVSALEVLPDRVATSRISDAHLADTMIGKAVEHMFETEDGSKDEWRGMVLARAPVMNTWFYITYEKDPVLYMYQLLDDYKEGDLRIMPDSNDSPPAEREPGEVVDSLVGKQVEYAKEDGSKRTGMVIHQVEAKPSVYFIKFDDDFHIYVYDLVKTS
Put plainly: pull-down; co-precipitation of recombinant proteins, Coomassie gel, n = 3. Particulars: both partners purified.

T1 sequence (Q61142 49-262): as above

B1: His-tagged SPOCD1 fragment 1b (domain or fragment, mouse, UniProt B1ASB6 203-409, looked up)
chain: VTQEPLQSPALYPEVLTEDSTDQQEVQPAFVVGSPGTPPDPVGPEDKAQSGSRMELEQGLSAPANSCASSPEPLGGLDGAPLEQRRPTHVKKRPWTSPDDSSQDHAEGASKKDFPRLEARVPRGVKTVYYVYTGSGIRLVGAASSSQPGQIEPLEELDTNSARRKRRPTTAHPTPCQSDPSETENAEPHQQRAEDPGEQGMTPLDAG
notes: source: E. coli BL21 (DE3), purified
Take B1: the binding result in assay [1] is “binds”.

B2: mouse GST–SPOCD1-F1b (amino acids 203–409), recombinant (domain or fragment, UniProt B1ASB6 203-409, looked up)
chain: VTQEPLQSPALYPEVLTEDSTDQQEVQPAFVVGSPGTPPDPVGPEDKAQSGSRMELEQGLSAPANSCASSPEPLGGLDGAPLEQRRPTHVKKRPWTSPDDSSQDHAEGASKKDFPRLEARVPRGVKTVYYVYTGSGIRLVGAASSSQPGQIEPLEELDTNSARRKRRPTTAHPTPCQSDPSETENAEPHQQRAEDPGEQGMTPLDAG
notes: pET-based backbone; also called GST–F1b; SPOCD1 fragment 1b; source: E. coli BL21 (DE3), purified (glutathione sepharose, dialysis)
With B2, the binding result in assay [2] was “binds”.
